{
  "source": "patent US20230058489A1",
  "about": "“COMBINATION COMPRISING A TIM-3 INHIBITOR AND A HYPOMETHYLATING AGENT FOR USE IN TREATING MYELODYSPLASTIC SYNDROME OR CHRONIC MYELOMONOCYTIC LEUKEMIA” (Novartis AG, priority 2020, published 2023)",
  "target": "T1, interaction between TIM-3 and Galectin-9 (Homo sapiens, UniProt Q8TDQ0)",
  "T1 construct": "purchased R&D Systems",
  "test": "MesoScale competition assay, Gal9-SULFOTag binding to coated TIM-3 fusion protein",
  "conditions": "serial dilutions, Galectin-9 SULFOTag 100 nM, FIG. 1",
  "method": "TIM-3 fusion protein (R&D Systems) was coated on a standard MesoScale 96 well plate (Meso Scale Discovery) at 2 μg/ml in PBS (Phosphate Buffered Saline) and incubated for six hours at room temperature. The plate was washed three times with PBST (PBS buffer containing 0.05% Tween-20) and blocked with PBS containing 5% Probumin (Millipore) overnight at 4° C. […] The plate was then washed three times with PBST, and Galectin-9 labeled with MSD SULFOTag (Meso Scale Discovery) as per manufacturer's instructions, diluted in Assay Diluent to 100 nM, was added to the plate for one hour at room temperature on an orbital shaker. The plate was again washed three times with PBST, and Read Buffer T (1×) was added to the plate. The plate was read on MA600 Imager, and competition was assessed as a measure of the ability of the antibody to block Gal9-SULFOTag signal to TIM-3 receptor.",
  "data": [
    {"molecule": "Galectin-9 protein: control recombinant human Galectin-9 protein, unlabeled (protein) AFSGSQAPYLSPAVPFSGTIQGGLQDGLQITVNGTVLSSSGTRFAVNFQTGFSGNDIAFHFNPRFEDGGYVVCNTRQNGSWGPEERKTHMPFQKGMPFDLCFLVQSSDFKVMVNGILFVQYFHRVPFHRVDTISVNGSVQLSYISFQPPGVWPANPAPITQTVIHTVQSAPGQMFSTPAIPPMMYPHPAYPMPFITTILGGLYPSKSILLSGTVLPSAQRFHINLCSGNHIAFHLNPRFDENAVVRNTQIDNSWGSEERSLPRKMPFVRGQSFSVWILCEAHCLKVAVDGQHLFEYYHRLRNLPTINRLEVGGDIQLTHVQT", "values": [
      {"measurement": "ability to block Gal9-SULFOTag signal to TIM-3 receptor (competition)", "value": "did not"}
    ]}
  ]
}
